Measured values from patent US6642040B2, “Human cGMP-stimulated cyclic nucleotide phosphodiesterase” (The Board of Regents of the University of Washington, priority 1991, dated 2003).

Assays:
yeast host strain YKS45 = experiment: Yeast heat shock phenotype complementation, strain YKS45; format: cell-based, S. cerevisiae; details: YKS45, 56° C. for 10, 20, 30 and 45 minutes
Procedure: The host cells used in these procedures were S. cerevisiae yeast strains 10DAB (ATCC accession No. 74049) and YKS45, both of which were pde^1- pde^2- resulting in a phenotype characterized by heat shock sensitivity, i.e., the inability of cells to survive exposure to elevated temperatures on the order of 55-56° C. In these complementation procedures, the inserted gene product was noted to conspicuously modify the heat shock phenotype.
In a like manner, plasmid pHcgs6n (Example VI) was transformed into yeast host strain YKS45 by lithium acetate transformation. Heat shock analysis was performed as above except that the plates were initially grown two days at 30° C. and the warmed plates were maintained at 56° C. for 10, 20, 30 and 45 minutes.

[1] = tested on: cyclic AMP and cyclic GMP hydrolysis; experiment: Phosphodiesterase assay of yeast cell extracts, second method of part D; format: biochemical, human; details: extracts of YKS45
Procedure: YKS45 transformed with plasmid pHcgs6n were grown in SC-leu medium to 1-2×10^7 cells/ml. The cells were harvested by centrifugation and the cell pellets were frozen. A frozen cell pellet, typically containing 10^10 cells, was mixed with lysis buffer (25 mM Tris HCl pH 8, 5 mM EDTA, 5 mM EGTA, 1 mM o-phenathroline, 0.5 mM AEBSF, 0.01 mg/mL pepstatin, 0.01 mg/mL leupeptin, 0.01 mg/mL aprotinin, 0.1% 2-mercaptoethanol) to bring the total volume to 2.5 ml. The mixture was thawed on ice and then added to an equal volume of glass beads. The cells were disrupted by cycles of vortexing and chilling on ice, then additional lysis buffer was mixed with the disrupted cells to bring the total lysis buffer added to 5 ml. The suspension was centrifuged for 5 min. at 12,000× g. The supernatant was removed and either assayed immediately or frozen rapidly in a dry ice ethanol bath and stored at −70° C.
Phosphodiesterase activity was assayed by mixing an aliquot of cell extract in (40 mM Tris-Cl pH 8.0, 1.mM EGTA, 0.01 mg/mL BSA) containing 5 mM MgCl2 and radioactive substrate, incubating at 30° C. for up to 30 min. and terminating the reaction with stop buffer (0.1 M ethanolamine pH 9.0, 0.5M ammonium sulfate, 10 mM EDTA, 0.05% SDS final concentration). […] The radioactive product was measured by scintillation counting.

cAMP hydrolysis = experiment: cGS-PDE activity of PPD-S49 cells transfected with cGS-PDE cDNA; format: biochemical, bovine; details: zinc-treated PPD S49 cells, pZEM 228 vector
Description: A putative phosphodiesterase-deficient (PPD) strain of S49 cells [Bourne et al., J. Cell. Physiol., 85:611-620 (1975)] was transiently transfected with the cGS-PDE cDNA using the DEAE-dextran method. The cGS-PDE cDNA was ligated into the unique BamHI cloning site in a mammalian expression vector, designated pZEM 228, following a zinc-inducible metallothionine promoter and prior to an SV40 transcription termination sequence. The DNA was purified from large-scale plasmid preparations using Qiagen pack-500 columns as directed by the manufacturer. PPD-S49 cells were cultured in DMEM containing 10% heat-inactivated horse serum, 50 μg/ml penicillin G and 50 μg/ml streptomycin sulfate at 37° C. in a water-saturated 7% CO2 atmosphere. Prior to transfections, confluent 100 mm dishes of cells were replated at one-fifth of the original density and incubated for 24-36 h. In a typical transfection experiment, PPD-S49 cells (50-80% confluent) were washed with Tris-buffered-saline and approximately 2×10^7 cells were transfected with […] of DNA mixed with 400 μg of DEAE-dextran in one ml of TBS. […]
cGS PDE activity was determined by a previously described method using [^3H]cAMP as the substrate as in Martins et al., J. Biol. Chem., 257:1973-1979 (1982). […] The Bradford assay [Bradford, Anal. Biochem., 72:248-254 (1976)] was used to quantitate protein using BSA as the standard.

cGS-PDE activity = cGS-PDE activity of membrane and supernatant fractions of transfected COS-7 cells; format: biochemical, bovine; details: most of the activity in supernatant fractions
Description: Transient expression of the CGS-PDE cDNA in COS-7 cells was accomplished as in Example I. A 4.2 kb fragment of p3CGS-5 was isolated using HindIII and NotI and was inserted into plasmid pCDM8, which had been digested with the same enzymes. The character of products produced in COS-7 cells transformed with the p3CGS-5/pCDM8 construct is discussed in Example V, infra.
For transient expression in COS-7 cells, a 3.8 kb fragment of pBBCGSPDE-7 was isolated using HindIII and NotI and inserted into plasmid pCDM8 which had been cut with HindIII and NotI restriction endonucleases. The recombinant pBBCGSPDE-7/CDM8 construct was used to transiently transfect COS-7 cells. The properties of the pBBCGSPDE-7/CDM8 construct and the p3CGS-5/CDM8 construct prepared in Example IV products were subsequently compared. Membrane and supernatant fractions were prepared from extracts of transfected COS-7 cells and assayed for cGS-PDE activity. […] However, a 10-fold greater percentage of total cGS-PDE activity was detected in membranes from COS-7 cell extracts transfected with the pBBCGSPDE-7/CDM8 construct than in membranes prepared from p3CGS-5/CDM8-transfected COS-7 cells.

| Molecule | heat shock phenotype of transformed yeast (yeast host strain YKS45) | hydrolysis of cyclic AMP and cyclic GMP by cell extracts [1] | cGMP-enhanced cAMP phosphodiesterase activity (cAMP hydrolysis) | cGS-PDE activity in COS-7 cell extracts (cGS-PDE activity) |
| --- | --- | --- | --- | --- |
| pHcgs6n: yeast expression plasmid with coding region of human cGS-PDE (SEQ ID NO: 45) (protein) MGQACGHSILCRSQQYPAARPAEPRGQQVFLKPDEPPPPPQPCADSLQDALLSLGSVIDISGLQRAVKEALSAVLPRVETVYTYLLDGESQLVCEDPPHELPQEGKVREAIISQKRLGCNGLGFSDLPGKPLARLVAPLAPDTQVLVMPLADKEAGAVAAVILVHCGQLSDNEEWSLQAVEKHTLVALRRVQVLQQRGPREAPRAVQNPPEGTAEDQKGGAAYTDRDRKILQLCGELYDLDASSLQLKVLQYLQQETRASRCCLLLVSEDNLQLSCKVIGDKVLGEEVSFPLTGCLGQVVEDKKSIQLKDLTSEDVQQLQSMLGCELQAMLCVPVISRATDQVVALACAFNKLEGDLFTDEDEHVIQHCFHYTSTVLTSTLAFQKEQKLKCECQALLQVAKNLFTHLDDVSVLLQEIITEARNLSNAEICSVFLLDQNELVAKVFDGGVVDDESYEIRIPADQGIAGHVATTGQILNIPDAYAHPLFYRGVDDSTGFRTRNILCFPIKNENQEVIGVAELVNKINGPWFSKFDEDLATAFSIYCGISIAHSLLYKKVNEAQYRSHLANEMMMYHMKVSDDEYTKLLHDGIQPVAAIDSNFASFTYTPRSLPEDDTSMAILSMLQDMNFINNYKIDCPTLARFCLMVKKGYRDPPYHNWMHAFSVSHFCYLLYKNLELTNYLEDIEIFALFISCMCHDLDHRGTNNSFQVASKSVLAALYSSEGSVMERHHFAQAIAILNTHGCNIFDHFSRKDYQRMLDLMRDIILATDLAHHLRIFKDLQKMAEVGYDRNNKQHHRLLLCLLMTSCDLSDQTKGWKTTRKIAELIYKEFFSQGDLEKAMGNRPMEMMDREKAYIPELQISFMEHIAMPIYKLLQDLFPKAAELYERVASNREHWTKVSHKFTIRGLPSNNSLDFLDEEYEVPDLDGTRAPINGCCSLDAE | resistant to thermal pulse | hydrolyzed both cyclic AMP and cyclic GMP |  |  |
| cGS-PDE cDNA: expression product of bovine adrenal cortex cGS-PDE cDNA (SEQ ID NO: 39) (protein) MRRQPAASRDLFAQEPVPPGSGDGALQDALLSLGSVIDVAGLQQAVKEALSAVLPKVETVYTYLLDGESRLVCEEPPHELPQEGKVREAVISRKRLGCNGLGPSDLPGKPLARLVAPLAPDTQVLVIPLVDKEAGAVAAVILVHCGQLSDNEEWSLQAVEKHTLVALKRVQALQQRESSVAPEATQNPPEEAAGDQKGGVAYTNQDRKILQLCGELYDLDASSLQLKVLQYLQQETQASRCCLLLVSEDNLQLSCKVIGDKVLEEEISFPLTTGRLGQVVEDKKSIQLKDLTSEDMQQLQSMLGCEVQAMLCVPVISRATDQVVALACAFNKLGGDLFTDQDEHVIQHCFHYTSTVLTSTLAFQKEQKLKCECQALLQVAKNLFTHLDDVSVLLQEIITEARNLSNAEICSVFLLDQNELVAKVFDGGVVEDESYEIRIPADQGIAGHVATTGQILNIPDAYAHPLFYRGVDDSTGFRTRNILCFPIKNENQEVIGVAELVNKINGPWFSKFDEDLATAFSIYCGISIAHSLLYKKVNEAQYRSHLANEMMMYHMKVSDDEYTKLLHDGIQPVAAIDSNFASFTYTPRSLPEDDTSMAILSMLQDMNFINNYKIDCPTLARFCLMVKKGYRDPPYHNWMHAFSVSHFCYLLYKNLELTNYLEDMEIFALFISCMCHDLDHRGTNNSFQVASKSVLAALYSSEGSVMERHHFAQAIAILNTHGCNIFDHFSRKDYQRMLDLMRDIILATDLAHHLRIFKDLQKMAEVGYDRTNKQHHSLLLCLLMTSCDLSDQTKGWKTTRKIAELIYKEFFSQGDLEKAMGNRPMEMMDREKAYIPELQISFMEHIAMPIYKLLQDLFPKAAELYERVASNREHWTKVSHKFTIRGLPSNNSLDFLDEEYEVPDLDGARAPINGCCSLDAE |  |  | expressed cGMP-enhanced CAMP phosphodiesterase activity | produced cGS-PDE activities |
